The target of the assay is protein A (UniProt P38507). Kind of assay: SPR.

For rabbit IgG (antibody), the SPR angle increase was determined as 2.1 °.

Source of the values: paper PMC3045209.
